Test results reported in patent publication US20120088722A1.
Ends that are not written are not given here.

Columns and labels:
[1] = target: extracellular matrix of whole cell primary chondrocyte cultures; experiment: fluorescent peptide binding to extracellular matrix of hypertrophic chondrocyte monolayer cultures, reference scrambled peptide
[2] = target: hypertrophic cartilage tissue extract; experiment: fluorescent peptide (100 nM) binding to plate-dried cartilage CHAPS extract, reference scrambled peptide
[3] = target: resting cartilage tissue extract; experiment: as above

Binder	fold binding compared to scrambled peptide [1] [fold]	fold binding over scrambled peptide control [2] [fold]	fold binding over scrambled peptide control [3] [fold]
ELGLPKEVKKISAAVHFED (also: fluorescent-labeled in binding assay, label and position not given here) [MMP13-19 peptide (amino acids 93-111 of SEQ ID NO: 1)]	8	9	5
LRGETMIFKD (also: fluorescent label (label and position not given here)) [MMP13-10 peptide (amino acids 17-26 of SEQ ID NO: 1)]	4	< 2	< 2
